Measurements from patent US20190330316A1 (published 2019).
Where a chain is given by its changes, count along the chain named.

B1: hu16G7VHv2b/hu16G7VLv2 (antibody, V domains shown)
VH: EVQLVQSGAEVVKPGASVKVSCKASGYTFTSSWIHWVRQRPGQGLEWIGEIYPNSGNTNYNEKFKGRVTLTRDISISTAYMELSRLTSDDTAVYYCARLGWLIPLDYWGQGTTVTVSS
VL: DIVLTQSPSSLAVSVGERATISCKSSQSLLDGNDQKNYLAWYQQKPGQSPKLLIYWASTRESGVPDRFSGSGSGTDFTLTISSLQAEDVAVYYCQQFYDYPWTFGGGTKLEIKR
B2: hu16G7VHv7/hu16G7VLv2 (antibody, V domains shown)
VH: B1 VH with S7P, V12K, R40A, I48M, L70M, R72V, T87R
VL: B1 VL
B3: hu16G7VHv2a/hu16G7VLv2 (antibody, V domains shown)
VH: B1 VH with R67K, V68A, R72V
VL: B1 VL
B4: chimeric 16G7 antibody (antibody, V domains shown)
VH: QVQLQQPGSVLVRPGASVKLSCKASGYTFTSSWIHWAKQRPGQGLEWIGEIYPNSGNTNYNEKFKGKATLTVDISSSTAYVDLTSLTSEDSAVYYCARLGWLIPLDYWGQGTTLIVSS
VL: B1 VL with T5S, R18K, A19V, I21M, I54M, S69T, Q85K, V89L

molecular target: recombinant human tau (human, UniProt P10636 1-383); assay: SPR
Sequence (P10636 other isoform, or with tags, fused parts or gaps): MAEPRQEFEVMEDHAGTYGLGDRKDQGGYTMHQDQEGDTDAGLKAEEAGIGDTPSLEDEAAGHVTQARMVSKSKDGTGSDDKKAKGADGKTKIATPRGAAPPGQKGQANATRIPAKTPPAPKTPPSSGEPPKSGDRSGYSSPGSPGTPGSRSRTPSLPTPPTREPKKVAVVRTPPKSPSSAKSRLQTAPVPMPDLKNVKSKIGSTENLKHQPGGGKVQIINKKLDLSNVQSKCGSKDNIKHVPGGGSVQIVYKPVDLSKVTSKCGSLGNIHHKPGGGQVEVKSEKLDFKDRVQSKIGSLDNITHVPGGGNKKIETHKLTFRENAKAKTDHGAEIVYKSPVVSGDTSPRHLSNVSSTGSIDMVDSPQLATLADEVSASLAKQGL

Binder	Kd [nM]
B1	0.303
B2	0.293
B3	0.277
B4	0.187
